Measured values from patent US10654939.

Tests used:
[1] = target: human CD40 expressed on cells (human) (UniProt P25942); test: FACS, HEK293A/humanCD40 cells
[2] = target: recombinant human CD40 (ECD)-his (human) (UniProt P25942); test: ELISA, hCD40(ECD)-his coated
[3] = target: recombinant rhesus CD40 (ECD)-hFc (rhesus monkey); test: ELISA, rhCD40(ECD)-hFc coated
[4] = target: human CD40 expressed on cells (human) (UniProt P25942); test: cell-based or functional assay
[5] = target: rhesus CD40 expressed on HEK293A cells (rhesus monkey); test: FACS, HEK293A/rhesusCD40 cells
rhesus CD40 expressed on HEK293A cells (rhesus monkey), sequence (P25942 other isoform, or with tags, fused parts or gaps limits assumed): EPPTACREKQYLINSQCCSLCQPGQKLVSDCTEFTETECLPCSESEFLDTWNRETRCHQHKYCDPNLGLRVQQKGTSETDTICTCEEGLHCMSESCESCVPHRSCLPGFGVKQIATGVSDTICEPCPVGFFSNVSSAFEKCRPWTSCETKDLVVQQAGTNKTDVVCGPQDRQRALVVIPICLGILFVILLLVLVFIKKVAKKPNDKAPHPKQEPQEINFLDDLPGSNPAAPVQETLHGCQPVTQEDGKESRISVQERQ

[6] = target: recombinant human CD40 (ECD)-his (human) (UniProt P25942); test: SPR (Biacore 8K), hCD40(ECD)-his coupled to chip, antibody injected

recombinant human CD40 (ECD)-his (human), sequence (P25942 21-193): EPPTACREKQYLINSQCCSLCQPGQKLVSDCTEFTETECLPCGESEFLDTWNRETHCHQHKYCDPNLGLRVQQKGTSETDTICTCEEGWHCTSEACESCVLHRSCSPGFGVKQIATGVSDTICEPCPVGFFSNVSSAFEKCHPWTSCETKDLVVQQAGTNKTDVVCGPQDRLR
human CD40 expressed on cells (human), sequence (P25942 21-277 limits assumed): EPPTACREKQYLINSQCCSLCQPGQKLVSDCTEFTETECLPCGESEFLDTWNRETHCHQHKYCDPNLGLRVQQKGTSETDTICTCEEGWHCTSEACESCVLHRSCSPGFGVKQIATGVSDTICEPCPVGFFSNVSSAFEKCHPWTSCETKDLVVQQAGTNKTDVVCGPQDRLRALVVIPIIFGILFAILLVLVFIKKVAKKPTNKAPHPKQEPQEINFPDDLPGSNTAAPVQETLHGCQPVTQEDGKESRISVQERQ
recombinant rhesus CD40 (ECD)-hFc (rhesus monkey), sequence (P25942 other isoform, or with tags, fused parts or gaps): as the sequence (P25942 21-193) above, with G43S, H56R, W89L, T92M, A95S, L101P, S106L, H142R, L172Q counted along it

B1: ADC1013 (antibody, INN chains, looked up, V domains shown)
VH: EVQLLESGGGLVQPGGSLRLSCAASGFTFSTYGMHWVRQAPGKGLEWLSYISGGSSYIFYADSVRGRFTISRDNSENALYLQMNSLRAEDTAVYYCARILRGGSGMDLWGQGTLVTVSS
VL: QSVLTQPPSASGTPGQRVTISCTGSSSNIGAGYNVYWYQQLPGTAPKLLIYGNINRPSGVPDRFSGSKSGTSASLAISGLRSEDEADYYCAAWDKSISGLVFGGGTKLTVL
modifications: IgG1/kappa
[1]
  EC50: 0.149 µg/mL
[2]
  EC50: 0.024 µg/mL
[3]
  EC50: 0.0229 µg/mL
[4]
  HEK Blue EC50: 1.03 µg/mL
[5]
  EC50: 0.0673 µg/mL
[6]
  Kd: 29 nM
  koff: 0.0348 s⁻¹
  kon: 1.2e+06 M⁻¹ s⁻¹
